Experimental data: patent publication US20110311507
Numbering of substitutions follows the chain as printed. In names and notes the source's numbering stands.

How the values were obtained:
[1] = biological target: T1, V5-tagged wild type murine Siae (UniProt P70665)
T1 sequence: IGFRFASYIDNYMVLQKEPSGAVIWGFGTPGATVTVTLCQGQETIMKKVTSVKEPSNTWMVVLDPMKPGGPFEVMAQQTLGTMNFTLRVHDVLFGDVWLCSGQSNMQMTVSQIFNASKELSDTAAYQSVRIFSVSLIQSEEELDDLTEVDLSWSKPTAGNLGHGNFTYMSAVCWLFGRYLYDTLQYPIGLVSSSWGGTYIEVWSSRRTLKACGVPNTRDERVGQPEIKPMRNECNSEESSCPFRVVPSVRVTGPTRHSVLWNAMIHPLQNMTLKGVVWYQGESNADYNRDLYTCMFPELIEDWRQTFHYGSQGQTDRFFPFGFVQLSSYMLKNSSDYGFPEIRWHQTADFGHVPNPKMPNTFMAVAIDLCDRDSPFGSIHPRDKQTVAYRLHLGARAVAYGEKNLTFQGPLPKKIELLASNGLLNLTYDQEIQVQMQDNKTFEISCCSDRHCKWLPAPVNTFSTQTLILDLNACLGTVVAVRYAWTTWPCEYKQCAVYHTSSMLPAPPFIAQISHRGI

[2] = biological target: T2, V5-tagged wild type murine Siae, P70665
T2 chain: T1 sequence

FLAG-tagged murine R505C Siae
enzyme activity of V5-tagged wild type Siae in co-transfectants, as a function of its protein level [1]: function in a dominant interfering fashion

FLAG-tagged K426N Siae
enzyme activity of V5-tagged WT Siae in co-transfectants, as a function of its protein level [1]: lacks dominant negative activity

FLAG-tagged murine T338M SIAE
enzyme activity of V5 tagged wild type SIAE in co-transfectants, as a function of its protein level [1]: function in a dominant interfering fashion

FLAG-tagged murine Q335P SIAE
enzyme activity of V5 tagged wild type SIAE in co-transfectants, as a function of its protein level [1]: function in a dominant interfering fashion

FLAG-tagged murine Y375C Siae
enzyme activity of V5-tagged wild type Siae in co-transfectants, as a function of its protein level [1]: function in a dominant interfering fashion

FLAG-tagged murine F430S Siae
enzyme activity of V5-tagged wild type Siae in co-transfectants, as a function of its protein level [1]: function in a dominant interfering fashion

B1: FLAG-tagged murine C196F SIAE (protein)
chain: T1 sequence with C173F
enzyme activity of V5 tagged wild type SIAE in co-transfectants, as a function of its protein level [2]: function in a dominant interfering fashion

B2: FLAG-tagged murine G212R Siae (protein)
chain: T1 sequence with G189R
enzyme activity of V5-tagged wild type Siae in co-transfectants, as a function of its protein level [2]: function in a dominant interfering fashion
